Test results: patent EP4817631A2 (AbbVie Deutschland GmbH & Co. KG, dated 2026)

T1: hRGMa-His (human, UniProt Q96B86 48-422, limits assumed)
T1 construct: not shown: His tag
T1 sequence: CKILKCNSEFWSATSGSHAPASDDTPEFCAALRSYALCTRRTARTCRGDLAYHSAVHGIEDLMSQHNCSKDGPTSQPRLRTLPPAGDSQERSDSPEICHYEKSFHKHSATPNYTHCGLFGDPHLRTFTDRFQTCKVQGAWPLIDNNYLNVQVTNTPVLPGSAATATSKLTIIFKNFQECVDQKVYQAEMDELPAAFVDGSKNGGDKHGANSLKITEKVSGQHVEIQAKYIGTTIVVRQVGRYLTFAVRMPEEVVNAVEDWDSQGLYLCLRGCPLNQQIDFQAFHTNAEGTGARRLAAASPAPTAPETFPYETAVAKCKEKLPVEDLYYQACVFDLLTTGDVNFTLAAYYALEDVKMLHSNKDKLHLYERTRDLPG

T2: R &D hRGMc-His (human, UniProt Q6ZVN8 36-400)
T2 construct: Bought (R&D) His-tagged human RGMc; also called human RGMc; not shown: His tag
T2 sequence: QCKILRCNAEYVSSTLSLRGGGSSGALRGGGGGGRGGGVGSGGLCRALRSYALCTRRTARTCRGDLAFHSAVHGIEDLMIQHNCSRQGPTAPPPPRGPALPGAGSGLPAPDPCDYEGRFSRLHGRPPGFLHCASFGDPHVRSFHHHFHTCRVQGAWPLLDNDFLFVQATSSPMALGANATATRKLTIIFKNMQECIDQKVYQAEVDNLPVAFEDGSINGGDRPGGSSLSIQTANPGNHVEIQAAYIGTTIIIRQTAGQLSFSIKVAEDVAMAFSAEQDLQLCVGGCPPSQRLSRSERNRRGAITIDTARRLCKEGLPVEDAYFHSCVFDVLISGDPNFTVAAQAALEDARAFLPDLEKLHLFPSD

T3: hRGMc expressed in 293HEK cells (human, UniProt Q6ZVN8 36-400)
T3 sequence: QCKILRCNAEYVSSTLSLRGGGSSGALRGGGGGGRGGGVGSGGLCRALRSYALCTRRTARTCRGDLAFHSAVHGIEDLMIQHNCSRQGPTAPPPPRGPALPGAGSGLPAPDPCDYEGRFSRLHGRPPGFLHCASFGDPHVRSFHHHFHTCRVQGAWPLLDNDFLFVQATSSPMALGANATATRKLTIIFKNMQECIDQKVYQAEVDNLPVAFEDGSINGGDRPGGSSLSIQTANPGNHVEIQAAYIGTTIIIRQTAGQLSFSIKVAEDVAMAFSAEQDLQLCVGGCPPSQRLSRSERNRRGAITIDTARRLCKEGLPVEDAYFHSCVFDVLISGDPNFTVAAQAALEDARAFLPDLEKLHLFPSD

B1: h5F9.AM4 (antibody, V domains shown)
VH: EVQLVESGGGLVQPGGSLRLSCAASGFTFSNYGMNWIRQAPGKGLEWIGMIYYDSSEKHYADSVKGRFTISRDNSKNTLYLQMNSLRAEDTAVYYCAKGTTPDYWGQGTMVTVSS
VL: DVVLTQSPLSLPVTLGQPASISCRSSQSLESSDGDTFLEWFQQRPGQSPRLLIYDVSTRFSGVPDRFSGSGSGTDFTLKISRVEAEDVGVYYCFQVTHDPVTFGQGTKLEIK
notes: also called RGMA-h5F9AM.4; RGMA-h5F9Vh7a/pJP29 1 hIgG1/K mut
B2: h5F9.AM8 (antibody, V domains shown)
VH: EVQLVESGGGLVQPGGSLRLSCAASGFTFSNYGMNWIRQAPGKGLEWIGMIYYDSSEKHYADSVKGRFTISRDNSKNTLYLQMNSLRAEDTAVYYCAKGTTPDYWGQGTMVTVSS
VL: DVVLTQSPLSLPVTLGQPASISCRSSQSLEESDGYTFLHWFQQRPGQSPRLLIYEVSTRFSGVPDRFSGSGSGTDFTLKISRVEAEDVGVYYCFQATHDPLTFGQGTKLEIK
notes: also called RGMA-h5F9AM.8; RGMA-h5F9pJP297/pJP 298 hIgG1/K mut
B3: h5F9.AM9 (antibody, V domains shown)
VH: EVQLVESGGGVVQPGRSLRLSCAASGFTFSNYGMNWVRQAPGKGLEWVAMIYYDSSEKHYADSVKGRFTISRDNSKNTLYLQMNSLRAEDTAVYYCARGTTPDYWGQGTMVTVSS
VL: DVVLTQSPLSLPVTLGQPASISCRSSQSLADSDGDTFLHWFQQRPGQSPRLLIYAVSHRFSGVPDRFSGSGSGTDFTLKISRVEAEDVGVYYCFQATHDPVTFGQGTKLEIK
notes: also called RGMA-h5F9AM.9; RGMA-h5F9pJP297/pJP 299 hIgG1/K mut
B4: h5F9.AM11 (antibody, V domains shown)
VH: EVQLVESGGGLVQPGGSLRLSCAASGFTFSNYGMNWVRQAPGKGLEWVSMIYYDSSEKHYADSVKGRFTISRDNSKNTLYLQMNSLRAEDTAVYYCAKGTTPDYWGQGTMVTVSS
VL: DVVLTQSPLSLPVTLGQPASISCRSSQSLEDSDGGTFLEWFQQRPGQSPRLLIYDVSSRFSGVPDRFSGSGSGTDFTLKISRVEAEDVGVYYCFQATHDPLSFGQGTKLEIK
notes: also called RGMA-h5F9AM; 11; RGMA-h5F9pJP302/pJP 303 hIgG1/K mut
B5: humanized antibody 5F9.23 (antibody, V domains shown)
VH: EVQLVESGGGLVQPGGSLRLSCAASGFTFSNYGMNWIRQAPGKGLEWIGMIYYDSSEKHYADSVKGRFTISRDNSKNTLYLQMNSLRAEDTAVYYCAKGTTPDYWGQGTMVTVSS
VL: DVVLTQSPLSLPVTLGQPASISCRSSQSLEYSDGYTFLEWFQQRPGQSPRLLIYEVSNRFSGVPDRFSGSGSGTDFTLKISRVEAEDVGVYYCFQATHDPLTFGQGTKLEIKR
notes: Humanized parental antibody; also called h5F9.23; H5F9.23*

What was measured:
hRGMa-His [1] = target: T1, hRGMa-His; experiment: affinity KD as listed in Table 4 (equals BIAcore value of Table 5)
Rat RGMa-His (rat) [2] = target: Rat RGMa-His (rat) (UniProt D4A188); experiment: as above
hRGMa-His [3] = target: T1, hRGMa-His; experiment: BIAcore; Ab captured on CM5 chip via anti-hIgG Fc Ab, antigen injected; 1:1 Langmuir fit
R &D hRGMc-His [4] = target: T2, R &D hRGMc-His; experiment: as above
R &D hRGMc-His [5] = target: T2, R &D hRGMc-His; experiment: affinity KD as listed in Table 4; method not given
Rat RGMa-His (rat) [6] = target: Rat RGMa-His (rat) (UniProt D4A188); experiment: BIAcore; Ab captured on CM5 chip via anti-hIgG Fc Ab, antigen injected; 1:1 Langmuir fit
[7] = target: T3, hRGMc expressed in 293HEK cells; experiment: cell-based or functional assay

Row | Binder | Kd (hRGMa-His [1]) [nM] | Kd (Rat RGMa-His (rat) [2]) [nM] | Kd (hRGMa-His [3]) [nM] | koff (hRGMa-His [3]) [s⁻¹] | kon (hRGMa-His [3]) [M⁻¹ s⁻¹] | Kd (R &D hRGMc-His [4]) [nM] | koff (R &D hRGMc-His [4]) [s⁻¹] | kon (R &D hRGMc-His [4]) [M⁻¹ s⁻¹] | Kd (R &D hRGMc-His [5]) [nM] | Kd (Rat RGMa-His (rat) [6]) [nM] | koff (Rat RGMa-His (rat) [6]) [s⁻¹] | kon (Rat RGMa-His (rat) [6]) [M⁻¹ s⁻¹] | IC50, RGMc-mediated BMP reporter (BRE-luc) assay [7] [nM]
1 | B1 | 0.015 | < 0.00094 | 0.015 | 2.2e-05 | 1.4e+06 | 0.13 | 0.00104 | 7.85e+06 | 0.12 | < 0.00094 | < 1e-06 | 1.1e+06 | 
2 | B2 | 0.031 | < 0.0015 | 0.031 | 2.7e-05 | 870000 | 0.105 | 0.00039 | 3.95e+06 | 0.08 | < 0.0015 | < 1e-06 | 660000 | 
3 | B3 | 0.47 | 0.31 | 0.47 | 0.0004 | 860000 | 0.71 | 0.0107 | 1.55e+07 | 0.69 | 0.31 | 0.00021 | 680000 | 
4 | B4 | 0.11 | 0.074 | 0.11 | 9.9e-05 | 930000 | 0.285 | 0.0014 | 5.05e+06 | 0.25 | 0.074 | 5.2e-05 | 700000 | 
5 | B5 |  |  |  |  |  | 29 |  | 830000 |  | 2.1 | 0.0017 | 830000 | 17
